Measured values: patent US8461305B2, “L-fucose α1→6 specific lectin” (J-Oil Mills, Inc., priority 2008, dated 2013)

Columns and labels:
glycoproteins = test: hemagglutinating inhibition test with glycoproteins (sugar binding specificity); type: cell-based
Text: The sugar binding specificity of lectin also can be confirmed by using erythrocytes that can be specifically agglutinated by the lectin to investigate the sugar type that may inhibit the agglutination of the erythrocytes and the concentration thereof.
Various monosaccharides, oligosaccharides, and polysaccharides shown in Table 2 and glycoproteins shown in Table 3 were subjected to hemagglutinating inhibition test to evaluate PTL of Example 1 and the SRL of Example 2 with regard to the sugar binding specificity.
On a 96 well U-bottom microtiter plate, double dilution series of 10 μl of monosaccharide, oligosaccharide, polysaccharide, and glycoprotein solutions were prepared. Then, lectin solution adjusted in advance to have titer 4 was added in an amount of 10 μl to the respective wells. Then, the plate was subjected to a still-standing at a room temperature for one hour for sensitization. Then, 10 μl of 4%-red blood cell suspension was added to the respective wells and the plate was further subjected to a still-standing at a room temperature for one hour. […] The lowest concentration showing the inhibition was assumed as the minimum inhibition concentration. The lower the minimum inhibition concentration is, the higher the specificity to lectin is.
For comparison, the sugar binding specificity was evaluated using the following commercially-available lectins: Comparison Example 1: AAL (SEIKAGAKU BIOBUSINESS CORPORATION—J-OIL MILLS, Inc.), Comparison Example 2: AOL (TOKYO CHEMICAL INDUSTRY CO., LTD.—Gekkeikan Sake Company, Ltd.), Comparison Example 3: LCA (SEIKAGAKU BIOBUSINESS CORPORATION—J-OIL MILLS, Inc.), and Comparison Example 4: PSA (SEIKAGAKU BIOBUSINESS CORPORATION—J-OIL MILLS, Inc.).

[1] = system: Immune-globulin G (human); test: detection of glycoproteins by ELISA with biotin-labeled lectin; type: binding; conditions: (3) Immune-globulin G (human), N-linked glycan having α1→6 L-fucose; thyroglobulin value = 100%
Method: (§1) PTL of Example 1, SRL of Example 2, AAL of Comparison Example 1, AOL of Comparison Example 2, and LCA of Comparison Example 3 that were biotin-labeled were used to the detection of glycoproteins by the enzyme-linked immunosorbent assay (ELISA).
(§2) The glycoprotein and albumin as protein not including a sugar chain as a control were dissolved in 0.1 M carbonic acid buffer solution (pH 9.5) at 1 mg/ml. Then, the resultant solution was added to a microtiter plate (Nunc 439454) and was incubated at 4 degrees C. overnight. Then, the resultant solution was cleaned by 0.05% Tween/PBS three times. Thereafter, 1% BSA/PBS was added to wells and the solution was incubated at 37 degrees C. for one hour. Then, after the solution was cleaned by 0.05% Tween/PBS three times, biotin labeled-lectin appropriately diluted by 1% BSA/0.05% Tween/PBS was added to the wells and the solution was incubated at 37 degrees C. for one hour. After the solution was cleaned by 0.05% Tween/PBS three times, HRP labeled streptavidin solution diluted by 1% BSA/0.05% Tween/PBS was added to wells and the solution was incubated at 37 degrees C. for 30 minutes. After the solution was cleaned by 0.05% Tween/PBS three times, TMB Peroxidase substrate system (KPL) was added and the resultant solution was incubated at a room temperature for 10 minutes while light was being blocked.
(§3) The reaction was stopped by 1 M phosphoric acid. Then, a microplate reader (MPR-A4i, TOSOH CORPORATION) was used to measure the absorbance at 450 nm. Based on this value, reaction value ([absorbance at 450 nm of a well for which glycoprotein was solid-phased to the plate and reacted]−[absorbance at 450 nm of a well for which glycoprotein was not solid-phased to the plate and reacted] was calculated. Next, for each lectin, the interaction strength (relative value) to each glycoprotein was calculated based on an assumption that the glycoprotein (thyroglobulin) value was 100%. The calculation result is shown in Table 9 and FIG. 19 to FIG. 23.

[2] = molecular target: Blood serum albumin (bovine) (Bos taurus, UniProt P02769); test: as above; type: binding; conditions: (0) Blood serum albumin (bovine), No sugar chain; thyroglobulin value = 100%
Method: as §1, §2, §3

[3] = system: α1-acidic glycoprotein (human); test: as above; type: binding; conditions: (5) α1-acidic glycoprotein (human), N-linked glycan having α1→3 L-fucose; thyroglobulin value = 100%
Method: as §1, §2, §3

Mucin (bovine) = test: as above; type: binding; conditions: (8) Mucin (bovine), O-linked glycan including L-fucose; thyroglobulin value = 100%
Method: as §1, §2, §3

Invertase (yeast) = molecular target: T1, Invertase (yeast) (Saccharomyces cerevisiae, UniProt P00724); test: as above; type: binding; conditions: (6) Invertase (yeast), High mannose-type glycan; thyroglobulin value = 100%
T1 sequence (P00724 20-532): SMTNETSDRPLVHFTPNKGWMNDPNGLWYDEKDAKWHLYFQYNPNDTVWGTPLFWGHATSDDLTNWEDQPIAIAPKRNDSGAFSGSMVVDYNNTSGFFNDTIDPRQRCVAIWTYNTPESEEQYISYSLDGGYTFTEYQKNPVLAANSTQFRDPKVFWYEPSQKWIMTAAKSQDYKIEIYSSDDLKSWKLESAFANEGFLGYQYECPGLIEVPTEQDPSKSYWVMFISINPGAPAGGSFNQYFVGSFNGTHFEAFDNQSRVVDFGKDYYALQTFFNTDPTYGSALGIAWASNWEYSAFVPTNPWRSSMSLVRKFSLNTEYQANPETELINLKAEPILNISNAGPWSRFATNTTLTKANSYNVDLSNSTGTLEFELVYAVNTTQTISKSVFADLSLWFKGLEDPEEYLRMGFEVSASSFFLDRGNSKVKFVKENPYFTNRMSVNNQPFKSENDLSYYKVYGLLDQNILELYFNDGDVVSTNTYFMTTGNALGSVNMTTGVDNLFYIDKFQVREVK
Method: as §1, §2, §3

Thyroglobulin (pig) = Thyroglobulin (pig) (Sus scrofa, UniProt F1RRV3); test: as above; type: binding; conditions: (1) Thyroglobulin (pig), N-linked glycan having α1→6 L-fucose; thyroglobulin value = 100%
Method: as §1, §2, §3

Transferrin (human) = Transferrin (human) (Homo sapiens, UniProt P02787); test: as above; type: binding; conditions: (4) Transferrin (human), N-linked glycan not including α1→6 L-fucose; thyroglobulin value = 100%
Method: as §1, §2, §3

Mucin (pig) = test: as above; type: binding; conditions: (7) Mucin (pig), O-linked glycan including L-fucose; thyroglobulin value = 100%
Method: as §1, §2, §3

Blood serum albumin (bovine), sequence (P02769 25-607): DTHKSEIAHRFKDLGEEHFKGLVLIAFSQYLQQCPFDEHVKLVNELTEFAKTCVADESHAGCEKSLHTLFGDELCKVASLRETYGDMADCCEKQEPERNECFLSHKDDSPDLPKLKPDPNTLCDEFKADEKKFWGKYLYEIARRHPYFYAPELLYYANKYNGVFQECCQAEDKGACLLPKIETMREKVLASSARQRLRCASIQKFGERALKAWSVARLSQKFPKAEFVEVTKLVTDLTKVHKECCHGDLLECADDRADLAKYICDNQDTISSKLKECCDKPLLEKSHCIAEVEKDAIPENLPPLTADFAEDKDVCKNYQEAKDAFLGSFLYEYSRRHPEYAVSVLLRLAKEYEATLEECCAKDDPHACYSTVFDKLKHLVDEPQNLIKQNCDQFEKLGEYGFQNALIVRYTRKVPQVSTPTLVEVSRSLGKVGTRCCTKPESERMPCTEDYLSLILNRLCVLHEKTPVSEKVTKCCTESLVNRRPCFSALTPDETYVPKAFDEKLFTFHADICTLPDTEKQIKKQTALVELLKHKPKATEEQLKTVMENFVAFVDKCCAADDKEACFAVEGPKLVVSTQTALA
Transferrin (human), sequence (P02787 20-698): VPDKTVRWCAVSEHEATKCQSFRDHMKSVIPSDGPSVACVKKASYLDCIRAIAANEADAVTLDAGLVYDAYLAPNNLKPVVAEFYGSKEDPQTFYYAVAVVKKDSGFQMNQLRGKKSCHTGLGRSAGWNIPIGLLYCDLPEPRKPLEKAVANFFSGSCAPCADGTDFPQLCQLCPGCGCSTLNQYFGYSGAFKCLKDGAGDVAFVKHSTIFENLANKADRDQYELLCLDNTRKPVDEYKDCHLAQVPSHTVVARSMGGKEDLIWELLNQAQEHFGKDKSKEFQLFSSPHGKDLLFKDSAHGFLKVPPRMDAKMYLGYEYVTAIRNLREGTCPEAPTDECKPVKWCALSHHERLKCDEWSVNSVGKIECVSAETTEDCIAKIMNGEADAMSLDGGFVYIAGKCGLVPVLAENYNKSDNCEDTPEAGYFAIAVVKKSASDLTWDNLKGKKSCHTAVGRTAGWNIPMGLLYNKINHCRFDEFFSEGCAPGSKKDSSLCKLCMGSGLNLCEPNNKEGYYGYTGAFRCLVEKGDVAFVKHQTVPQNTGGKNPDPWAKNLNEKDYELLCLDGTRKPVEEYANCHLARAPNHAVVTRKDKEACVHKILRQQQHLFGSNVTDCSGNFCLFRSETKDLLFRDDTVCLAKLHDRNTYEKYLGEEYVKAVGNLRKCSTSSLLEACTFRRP
Thyroglobulin (pig), sequence (F1RRV3 20-2692): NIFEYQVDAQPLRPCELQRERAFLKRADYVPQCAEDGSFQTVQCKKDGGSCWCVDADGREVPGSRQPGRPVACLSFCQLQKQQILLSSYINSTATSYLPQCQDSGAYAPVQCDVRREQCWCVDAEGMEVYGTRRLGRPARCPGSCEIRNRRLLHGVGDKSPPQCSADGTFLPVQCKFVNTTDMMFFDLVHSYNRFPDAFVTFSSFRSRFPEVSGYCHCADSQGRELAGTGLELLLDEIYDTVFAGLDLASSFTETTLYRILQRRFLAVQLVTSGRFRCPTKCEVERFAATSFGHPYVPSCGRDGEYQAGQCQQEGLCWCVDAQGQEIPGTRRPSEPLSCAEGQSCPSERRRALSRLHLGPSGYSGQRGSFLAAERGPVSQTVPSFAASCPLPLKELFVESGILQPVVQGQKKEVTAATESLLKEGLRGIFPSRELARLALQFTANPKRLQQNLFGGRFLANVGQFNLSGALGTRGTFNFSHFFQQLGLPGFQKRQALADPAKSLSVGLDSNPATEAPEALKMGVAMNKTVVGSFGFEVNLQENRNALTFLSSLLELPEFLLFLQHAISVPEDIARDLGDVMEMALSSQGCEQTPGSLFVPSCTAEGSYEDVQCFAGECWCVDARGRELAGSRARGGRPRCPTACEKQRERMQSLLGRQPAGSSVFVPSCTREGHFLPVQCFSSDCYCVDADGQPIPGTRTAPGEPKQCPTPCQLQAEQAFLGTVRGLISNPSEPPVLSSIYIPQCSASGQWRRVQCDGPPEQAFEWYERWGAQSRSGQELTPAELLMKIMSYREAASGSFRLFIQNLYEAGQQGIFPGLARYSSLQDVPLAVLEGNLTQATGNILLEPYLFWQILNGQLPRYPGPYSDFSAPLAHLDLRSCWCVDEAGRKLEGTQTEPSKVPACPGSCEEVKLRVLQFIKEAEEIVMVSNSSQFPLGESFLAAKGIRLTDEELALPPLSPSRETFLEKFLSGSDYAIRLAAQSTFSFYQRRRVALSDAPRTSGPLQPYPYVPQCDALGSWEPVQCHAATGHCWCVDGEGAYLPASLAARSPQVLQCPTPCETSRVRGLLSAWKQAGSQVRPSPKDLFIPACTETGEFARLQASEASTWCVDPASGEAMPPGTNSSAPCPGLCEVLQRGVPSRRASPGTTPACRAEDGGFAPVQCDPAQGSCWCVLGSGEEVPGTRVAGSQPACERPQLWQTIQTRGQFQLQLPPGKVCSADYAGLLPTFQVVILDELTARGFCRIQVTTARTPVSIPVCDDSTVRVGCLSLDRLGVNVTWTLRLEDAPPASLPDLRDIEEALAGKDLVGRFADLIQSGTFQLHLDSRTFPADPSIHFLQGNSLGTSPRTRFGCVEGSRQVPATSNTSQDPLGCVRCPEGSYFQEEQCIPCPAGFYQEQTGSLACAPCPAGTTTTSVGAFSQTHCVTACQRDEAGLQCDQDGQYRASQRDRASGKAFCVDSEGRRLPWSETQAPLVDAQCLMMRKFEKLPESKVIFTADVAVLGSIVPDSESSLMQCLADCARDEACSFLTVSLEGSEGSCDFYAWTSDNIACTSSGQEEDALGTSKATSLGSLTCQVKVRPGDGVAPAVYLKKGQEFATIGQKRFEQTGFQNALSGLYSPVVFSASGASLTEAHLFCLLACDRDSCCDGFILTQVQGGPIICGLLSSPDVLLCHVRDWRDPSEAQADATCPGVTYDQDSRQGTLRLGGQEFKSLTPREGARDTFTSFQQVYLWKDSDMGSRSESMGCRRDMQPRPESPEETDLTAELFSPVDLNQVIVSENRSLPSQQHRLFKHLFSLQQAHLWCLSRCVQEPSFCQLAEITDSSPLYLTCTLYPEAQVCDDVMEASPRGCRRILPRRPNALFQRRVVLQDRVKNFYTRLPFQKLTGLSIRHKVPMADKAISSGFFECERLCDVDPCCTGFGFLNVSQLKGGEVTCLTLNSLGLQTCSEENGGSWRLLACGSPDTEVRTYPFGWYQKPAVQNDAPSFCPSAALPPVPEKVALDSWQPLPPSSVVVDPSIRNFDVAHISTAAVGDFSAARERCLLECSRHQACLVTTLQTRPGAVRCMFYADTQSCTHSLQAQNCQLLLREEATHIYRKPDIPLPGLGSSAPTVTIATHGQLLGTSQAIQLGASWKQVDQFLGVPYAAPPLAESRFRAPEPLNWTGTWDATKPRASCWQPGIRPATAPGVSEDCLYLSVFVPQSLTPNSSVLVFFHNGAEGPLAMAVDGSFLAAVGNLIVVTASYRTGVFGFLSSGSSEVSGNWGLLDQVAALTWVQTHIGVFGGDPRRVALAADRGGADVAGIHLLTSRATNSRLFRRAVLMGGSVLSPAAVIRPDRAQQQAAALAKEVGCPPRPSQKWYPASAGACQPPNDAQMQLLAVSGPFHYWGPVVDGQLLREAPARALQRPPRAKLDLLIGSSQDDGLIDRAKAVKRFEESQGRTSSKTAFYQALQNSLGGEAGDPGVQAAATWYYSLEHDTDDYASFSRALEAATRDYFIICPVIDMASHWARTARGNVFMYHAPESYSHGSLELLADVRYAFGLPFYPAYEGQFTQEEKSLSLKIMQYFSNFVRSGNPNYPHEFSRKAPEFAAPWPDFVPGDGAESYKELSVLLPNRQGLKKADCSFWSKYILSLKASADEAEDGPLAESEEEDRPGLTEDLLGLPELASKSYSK

B1: Lens culinaris agglutinin (protein)
chain 1: TETTSFSITKFSPDQKNLIFQGDGYTTKGKLTLTKAVKSTVGRALYSTPIHIWDRDTGNVANFVTSFTFVIDAPSSYNVADEFTFFIAPVDTKPQTGGGYLGVFNSKEYDKTSQTVAVEFDTFYNAAWDPSNKERHIGIDVNSIKSVNTKSWNLQNGERANVVIAFNAATNVLTVTLTYP
chain 2: VTSYTLNEVVPLKDVVPEWVRIGFSATTGAEFAAHEVHSWSFHSELGGTSSS
minimum inhibition concentration of hemagglutination (glycoproteins; inhibitor: Asialofetuin): 250 μl/ml | minimum inhibition concentration of hemagglutination (glycoproteins; inhibitor: Asialomucin (pig)): >250 μl/ml | minimum inhibition concentration of hemagglutination (glycoproteins; inhibitor: Bovine blood serum albumin): >250 μl/ml | minimum inhibition concentration of hemagglutination (glycoproteins; inhibitor: Casein): >250 μl/ml | minimum inhibition concentration of hemagglutination (glycoproteins; inhibitor: Fetuin): >250 μl/ml | minimum inhibition concentration of hemagglutination (glycoproteins; inhibitor: Human immune globulin A): >250 μl/ml | minimum inhibition concentration of hemagglutination (glycoproteins; inhibitor: Human immune globulin G): >250 μl/ml | minimum inhibition concentration of hemagglutination (glycoproteins; inhibitor: Lactoferrin): >250 μl/ml | minimum inhibition concentration of hemagglutination (glycoproteins; inhibitor: Mucin (bovine)): >250 μl/ml | minimum inhibition concentration of hemagglutination (glycoproteins; inhibitor: Mucin (pig)): >250 μl/ml | minimum inhibition concentration of hemagglutination (glycoproteins; inhibitor: Ribonuclease): >250 μl/ml | minimum inhibition concentration of hemagglutination (glycoproteins; inhibitor: Thyroglobulin): 62.5 μl/ml | minimum inhibition concentration of hemagglutination (glycoproteins; inhibitor: Transferrin): >250 μl/ml | minimum inhibition concentration of hemagglutination (glycoproteins; inhibitor: α1-acidic glycoprotein): >250 μl/ml | interaction strength (relative value) by ELISA [1]: ◯ (Relative values of 80 to 50) | interaction strength (relative value) by ELISA [2]: X (Relative values of 10 or less) | interaction strength (relative value) by ELISA [3]: X (Relative values of 10 or less) | interaction strength (relative value) by ELISA (Mucin (bovine)): X (Relative values of 10 or less) | interaction strength (relative value) by ELISA (Invertase (yeast)): X (Relative values of 10 or less) | interaction strength (relative value) by ELISA (Thyroglobulin (pig)): ⊚ (Relative values of 120 to 80) | interaction strength (relative value) by ELISA (Transferrin (human)): X (Relative values of 10 or less) | interaction strength (relative value) by ELISA (Mucin (pig)): X (Relative values of 10 or less)
